In test [1] the target is T1, TMR-labeled BiP protein (BiP-C41A/C420A/V429C/T462C labelled with tetramethylrhodamine) (human, UniProt P11021 19-654, C41A | C420A | V429C | T462C, tetramethylrhodamine (TMR, from 5-IATR) on both introduced cysteines (V429C, T462C)).
T1 construct: human BiP with C41A, C420A, V429C, T462C; ATP (2 mM) present in the ERdj3 experiments; also called TMR-labeled BiP FRET protein; source: E. coli BL21(DE3) Gold, purified, labelled with 5-IATR, HiTrap Q, monomer peak used; not shown: His6, N-terminal, cleaved; Smt3, N-terminal, cleaved
T1 sequence (P11021 19-654 C41A/C420A/V429C/T462C): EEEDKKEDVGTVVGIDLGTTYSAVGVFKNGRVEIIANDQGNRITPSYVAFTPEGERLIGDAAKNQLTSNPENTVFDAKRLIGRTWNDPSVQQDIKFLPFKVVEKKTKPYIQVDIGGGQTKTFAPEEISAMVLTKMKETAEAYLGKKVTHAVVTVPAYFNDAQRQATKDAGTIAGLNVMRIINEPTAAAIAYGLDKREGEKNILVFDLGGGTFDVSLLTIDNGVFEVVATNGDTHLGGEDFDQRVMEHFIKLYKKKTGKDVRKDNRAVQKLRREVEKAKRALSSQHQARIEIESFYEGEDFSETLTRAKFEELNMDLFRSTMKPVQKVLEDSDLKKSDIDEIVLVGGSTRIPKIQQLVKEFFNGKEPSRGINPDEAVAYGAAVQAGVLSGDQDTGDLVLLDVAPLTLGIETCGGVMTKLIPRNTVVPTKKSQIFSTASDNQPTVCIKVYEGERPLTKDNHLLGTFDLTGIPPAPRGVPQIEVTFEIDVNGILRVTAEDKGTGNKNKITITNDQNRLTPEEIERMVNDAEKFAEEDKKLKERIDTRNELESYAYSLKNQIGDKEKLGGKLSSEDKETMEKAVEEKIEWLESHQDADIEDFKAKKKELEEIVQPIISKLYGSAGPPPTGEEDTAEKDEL
The experiment in a line: other fluorescence titration; quenching of two TMR labels on BiP (called FRET by the paper); 300 nM TMR-labeled BiP, 2 mM ATP, buffer B (30 mM Tris-HCl pH 7.0, 100 mM KCl, 3 mM MgCl2, 3 mM CaCl2, 10% glycerol), room temperature, serial dilutions of ERdj3, one-site binding fit. As to conditions: both partners purified.

Test [2] has as its target T2, TMR-labeled DnaK (DnaK FRET construct C15A/M404C/T437C labelled with tetramethylrhodamine) (E. coli, UniProt P0A6Y8 1-638, C15A | M404C | T437C, tetramethylrhodamine (TMR, from 5-IATR) on both introduced cysteines (M404C, T437C)).
T2 construct: DnaK, an E. coli Hsp70, with C15A, M404C, T437C; ATP (2 mM) present in the DnaJ experiments; source: E. coli dnak deletion strain BB205 (plasmid pBB46), purified, labelled with 5-IATR, HiTrap Q, monomer peak used
Description: other fluorescence titration; quenching of two TMR labels on DnaK (called FRET by the paper); 30 nM TMR-labeled DnaK, 2 mM ATP, buffer C (30 mM Tris-HCl pH 7.5, 25 mM KCl, 3 mM MgCl2, 10% glycerol), room temperature, DnaJ added at indicated concentrations. As to conditions: both partners purified.

B1: ERdj3 (natural protein, UniProt Q9UBS4 23-358, looked up)
chain: GRDFYKILGVPRSASIKDIKKAYRKLALQLHPDRNPDDPQAQEKFQDLGAAYEVLSDSEKRKQYDTYGEEGLKDGHQSSHGDIFSHFFGDFGFMFGGTPRQQDRNIPRGSDIIVDLEVTLEEVYAGNFVEVVRNKPVARQAPGKRKCNCRQEMRTTQLGPGRFQMTQEVVCDECPNVKLVNEERTLEVEIEPGVRDGMEYPFIGEGEPHVDGEPGDLRFRIKVVKHPIFERRGDDLYTNVTISLVESLVGFEMDITHLDGHKVHISRDKITRPGAKLWKKGEGLPNFDNNNIKGSLIITFDVDFPKEQLTEEAREGIKQLLKQGSVQKVYNGLQGY
notes: ERdj3, an Hsp40 co-chaperone of BiP in the ER; plasmid a gift of Dr. Linda Hendershot; also called Hsp40 ERdj3; source: M15 E. coli, purified (HisTrap, 2 M urea in the lysis buffer, dialysis)
B1 gave a Kd in test [1] of 1670 ± 110 nM.

B2: DnaJ (natural protein, UniProt P08622 1-376, looked up)
chain: MAKQDYYEILGVSKTAEEREIRKAYKRLAMKYHPDRNQGDKEAEAKFKEIKEAYEVLTDSQKRAAYDQYGHAAFEQGGMGGGGFGGGADFSDIFGDVFGDIFGGGRGRQRAARGADLRYNMELTLEEAVRGVTKEIRIPTLEECDVCHGSGAKPGTQPQTCPTCHGSGQVQMRQGFFAVQQTCPHCQGRGTLIKDPCNKCHGHGRVERSKTLSVKIPAGVDTGDRIRLAGEGEAGEHGAPAGDLYVQVQVKQHPIFEREGNNLYCEVPINFAMAALGGEIEVPTLDGRVKLKVPGETQTGKLFRMRGKGVKSVRGGAQGDLLCRVVVETPVGLNERQKQLLQELQESFGGPTGEHNSPRSKSFFDGVKKFFDDLTR
notes: DnaJ, the Hsp40 partner of DnaK; also called Hsp40 co-chaperone DnaJ; source: E. coli BL21(DE3) Gold, purified (HisTrap, Ulp1, HisTrap, Superdex 200); not shown: Smt3, N-terminal, cleaved; His6 (from the vector pSMT3), N-terminal, cleaved
With B2, the “fold change of the dissociation constant against ERdj3-BiP” value in test [2] was approximately 10 times lower.

The values are drawn from publication PMC5662698, “Conformation transitions of the polypeptide-binding pocket support an active substrate release from Hsp70s” (Nature Communications, 2017).
